{"source": "paper PMC2677881", "target": "T1, NtbZIP (Nicotiana tabacum, UniProt Q4PKH1 1-400)", "T1 sequence": "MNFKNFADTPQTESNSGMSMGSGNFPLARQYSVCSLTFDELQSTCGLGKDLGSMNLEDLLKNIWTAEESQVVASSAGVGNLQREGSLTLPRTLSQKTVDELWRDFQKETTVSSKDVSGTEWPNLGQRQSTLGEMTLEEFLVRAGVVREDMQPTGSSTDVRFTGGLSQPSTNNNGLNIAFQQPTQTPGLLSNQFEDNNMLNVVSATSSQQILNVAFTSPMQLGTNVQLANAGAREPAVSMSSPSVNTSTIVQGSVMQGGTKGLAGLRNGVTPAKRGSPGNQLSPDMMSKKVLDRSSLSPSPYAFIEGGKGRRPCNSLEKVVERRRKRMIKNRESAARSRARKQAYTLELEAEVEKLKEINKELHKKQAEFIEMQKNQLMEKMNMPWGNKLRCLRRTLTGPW", "experiment": "EMSA"}
{"binder": "4x G-box of PNZIP promoter (dsDNA) DNA 1: GCCACGTGTCGCCACGTGTCGCCACGTGTCGCCACGTGTC DNA 2: GACACGTGGCGACACGTGGCGACACGTGGCGACACGTGGC", "values": [{"measurement": "binding result", "value": "binds"}]}
